Results from PMC2115308.
Where “and” joins values, the source holds several entries; their conditions need not be identical. Equal values may be shown once. Read-outs that look alike come from different tables or passages of the source. No end group written: not given here. *: point of attachment. 125I = [125I]*

Tests used:
[1] = molecular target: Arg-Gly-Asp-directed receptors on LiBr melanoma cells (human (endogenous in LiBr)); experiment: radioligand binding
[2] = molecular target: Arg-Gly-Asp-directed receptors on LiBr melanoma cells (human (endogenous in LiBr)); experiment: radioligand binding; remark: listed apart in the source

KY(125I)GRGDSP [iodinated synthetic peptide KYGRGDSP]
specific cpm [1]: 2660 cpm
specific cpm [2]: 637 cpm and 494 cpm
